The source of these data is patent US20160168210A1, “DERIVATIVES OF COLLAGEN-BINDING HAIRPIN PEPTIDES” (NATIONAL RESEARCH COUNCIL OF CANADA, priority 2012, published 2016).

“Also recorded” adds a separate entry of the source. Where no end group is shown, it is not given here.

The target in experiment [1] is rat-tail collagen type I (Rattus norvegicus, UniProt P02454+P02466). Kind of experiment: Collagen binding/responsiveness of peptides by proton NMR and H-15N HSQC spectroscopy. More on the design: rat-tail collagen type I (at 4 mg/ml in 0.02 N acetic acid); purchased BD Bioscience; host or cells: rat tail (tissue-derived). To be noted: for response to / binding of collagen (NMR spectral perturbations): peptide free in solution vs in the presence of collagen; for NMR perturbations after collagen gelation (polymerization); reversibility of collagen binding: before vs after collagen gelation. As to the method:
Rat collagen hydrogels were prepared using rat-tail collagen type I (at 4 mg/ml in 0.02 N acetic acid) from BD Bioscience. A volume of 200 μL of the concentrated collagen solution was mixed with an equal volume of a buffer solution that was 400 mM in Tris-HCl and 400 mM in NaCl with a pH of 7.6 and with 50 μL of deuterated water (D2O). The sample mixture was transferred to an NMR tube followed by gentle mixing under agitation using a Thermolyne™ Max Mix-II apparatus. The NMR tube containing the collagen solution was placed within the RF probe housed in a 500 MHz super-conducting magnet (Bruker Avance-500 NMR spectrometer). The probe and sample bulk temperature was kept at 277 K for 3 hours and then elevated to 310 K at a rate of 1 degree/10 min to enable fibril alignment during a slow process of collagen gelation under the influence of the magnetic field (Ma 2008). The degree of fibril alignment of the collagen hydrogels was determined by use of deuterium NMR spectroscopy of the added D2O as described (Ma 2008). […]
Randomly-deposited collagen (hydrogel) matrix was prepared following the same procedure as above for partially aligned hydrogels, except that the RF probe and the NMR tube (or test tubes) containing the collagen solution were placed outside the magnetic field. Peptides containing collagen-binding hairpins were introduced into the hydrogels in two ways, the first with the collagen stock solution diluted (50:50 in volume ratio) by the buffer of 400 mM in Tris-HCl and 400 mM in NaCl at pH 7.6 containing the peptides of interest (i.e. for FIGS. 1A & 1D), which gelates in the presence of the added peptide. Alternatively, peptides in an appropriate buffer were introduced to the top of the hydrogel matrix (i.e. for FIGS. 1B & 1C) preformed in the NMR tube (or test tube) following the procedures described above. The behavior of the peptides in the hydrogels was followed by use of NMR H-^15N HSQC spectra for ^15N-labelled peptides (FIG. 1) and/or by use of one-dimensional proton NMR spectroscopy (FIG. 2).
Deuterium NMR spectroscopy studies of collagen responsiveness (and/or binding) for each peptide were carried out using a volume of (400-X) μL of a peptide dissolved in pure water mixed with 50 μL of a 10×PBS (phosphate-buffered saline) supplemented by sodium phosphate to a final concentration of 50 mM, with 50 μL of deuterated water (D2O) to form the reference sample (where X=0), or the peptide-collagen complex with X μL of rat-tail collagen type I (at 3.6 to 4 mg/ml in 0.02 N acetic acid from BD Bioscience) adjusted to achieve the desired final concentration of collagen. The pH value of the reference peptide samples was adjusted to match the pH of the final peptide-collagen complex in order to facilitate NMR spectral comparison. The peptide-collagen solutions were also subjected to gelation under magnetic field guidance followed by the measurement of fibril alignment (Ma 2008) as a semi-quantitative indication of peptide-collagen binding. Deuterium coupling constants measuring the degree of collagen fibril alignment were reduced by more than 1.0 Hz for MH2-wZIP4, by less than 0.5 Hz for MH2-wZIP6 and MH2-wZIP5, which parallel those observed for trpzip4, trpzip6, trpzip5 and the gb1 peptide (see Example 4). As a comparison, a solution of rat collagen at a concentration of 1.8 mg/ml in 200 mM Tris-Cl/200 mM NaCl at pH 7.6 formed a partially-aligned hydrogel with a deuterium coupling constant (Ma, 2008) of 2.5 Hz, while a solution of rat collagen at a concentration of 3 mg/ml in PBS (137 mM NaCl/2.68 mM KCl/10.1 mM Na2HPO4/1.76 mM KH2PO4) supplemented with Na2HPO4 to achieve a final concentration of 50 mM at pH 7.4 formed a partially-aligned hydrogel with a deuterium coupling constant of 4.8 Hz. A solution of human collagen at a concentration of 2.23 mg/ml in PBS supplemented with Na2HPO4 with a final concentration of 50 mM at pH 7.4 formed a partially-aligned hydrogel with a deuterium coupling constant of 1.3 Hz.

Experiment [2] concerns the target T1, rat-tail collagen type I (rat, UniProt P02454 152-1207; P02466 86-1125).
T1 construct: also called type-I collagen; unpolymerized collagen
Kind of experiment: proton NMR, free against with collagen.

Sequence of rat-tail collagen type I (Rattus norvegicus, UniProt P02454+P02466) (P02454 152-1207 limits assumed): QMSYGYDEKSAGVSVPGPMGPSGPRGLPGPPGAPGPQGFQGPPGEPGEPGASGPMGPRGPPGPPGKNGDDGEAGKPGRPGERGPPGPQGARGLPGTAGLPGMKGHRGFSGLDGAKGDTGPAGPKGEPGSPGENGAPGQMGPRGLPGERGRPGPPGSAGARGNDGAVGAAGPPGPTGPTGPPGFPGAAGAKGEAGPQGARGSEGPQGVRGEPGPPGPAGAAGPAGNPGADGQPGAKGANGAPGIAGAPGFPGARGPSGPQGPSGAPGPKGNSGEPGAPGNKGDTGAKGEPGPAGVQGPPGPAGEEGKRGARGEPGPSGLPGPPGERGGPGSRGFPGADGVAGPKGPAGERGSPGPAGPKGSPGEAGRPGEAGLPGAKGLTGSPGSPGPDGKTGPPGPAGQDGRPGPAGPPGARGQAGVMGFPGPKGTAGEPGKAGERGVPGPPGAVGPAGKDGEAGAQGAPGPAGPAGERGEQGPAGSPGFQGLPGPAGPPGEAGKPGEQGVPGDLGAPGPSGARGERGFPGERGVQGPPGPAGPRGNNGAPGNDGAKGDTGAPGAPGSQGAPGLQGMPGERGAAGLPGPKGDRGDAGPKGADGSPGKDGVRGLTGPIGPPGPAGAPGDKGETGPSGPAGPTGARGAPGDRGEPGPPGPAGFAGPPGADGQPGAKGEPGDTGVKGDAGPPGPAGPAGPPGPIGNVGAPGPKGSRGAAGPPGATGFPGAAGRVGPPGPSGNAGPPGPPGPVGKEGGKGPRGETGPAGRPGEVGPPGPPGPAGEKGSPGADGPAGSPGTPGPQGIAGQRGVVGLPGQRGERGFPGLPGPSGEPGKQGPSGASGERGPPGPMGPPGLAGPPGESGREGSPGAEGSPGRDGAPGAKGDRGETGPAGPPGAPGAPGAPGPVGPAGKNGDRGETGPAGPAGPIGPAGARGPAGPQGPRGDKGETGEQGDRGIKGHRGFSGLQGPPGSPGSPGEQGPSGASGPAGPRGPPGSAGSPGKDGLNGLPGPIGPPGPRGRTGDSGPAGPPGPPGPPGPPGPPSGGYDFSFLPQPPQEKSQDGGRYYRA
Sequence of rat-tail collagen type I (Rattus norvegicus, UniProt P02454+P02466) (P02466 86-1125 limits assumed): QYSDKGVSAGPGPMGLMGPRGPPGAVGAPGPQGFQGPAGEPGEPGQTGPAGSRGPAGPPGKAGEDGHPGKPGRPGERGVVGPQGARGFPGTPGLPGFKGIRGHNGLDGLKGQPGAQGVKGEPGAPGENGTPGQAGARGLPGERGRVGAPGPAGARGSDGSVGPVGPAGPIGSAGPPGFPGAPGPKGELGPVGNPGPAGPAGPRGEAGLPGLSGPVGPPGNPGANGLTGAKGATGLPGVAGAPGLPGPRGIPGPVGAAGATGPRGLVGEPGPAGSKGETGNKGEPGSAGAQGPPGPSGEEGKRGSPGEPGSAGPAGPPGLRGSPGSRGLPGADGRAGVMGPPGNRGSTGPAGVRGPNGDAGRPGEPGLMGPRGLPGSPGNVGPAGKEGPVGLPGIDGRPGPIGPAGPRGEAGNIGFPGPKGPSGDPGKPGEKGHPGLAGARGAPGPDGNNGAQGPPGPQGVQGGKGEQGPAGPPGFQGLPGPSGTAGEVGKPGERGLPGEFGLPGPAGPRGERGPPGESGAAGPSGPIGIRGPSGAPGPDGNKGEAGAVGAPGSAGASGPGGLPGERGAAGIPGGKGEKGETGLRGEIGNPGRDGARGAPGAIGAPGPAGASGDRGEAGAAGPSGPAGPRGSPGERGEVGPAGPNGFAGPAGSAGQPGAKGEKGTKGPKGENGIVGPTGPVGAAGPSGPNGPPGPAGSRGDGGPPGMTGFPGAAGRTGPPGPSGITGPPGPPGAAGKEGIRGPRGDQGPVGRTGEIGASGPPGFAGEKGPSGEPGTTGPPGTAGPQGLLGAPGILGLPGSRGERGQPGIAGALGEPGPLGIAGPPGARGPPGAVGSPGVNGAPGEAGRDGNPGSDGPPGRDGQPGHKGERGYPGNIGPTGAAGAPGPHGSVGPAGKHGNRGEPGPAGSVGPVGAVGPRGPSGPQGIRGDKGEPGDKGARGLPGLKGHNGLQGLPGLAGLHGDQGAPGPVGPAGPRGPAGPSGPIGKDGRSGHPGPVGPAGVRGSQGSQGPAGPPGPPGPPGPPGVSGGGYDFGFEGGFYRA
T1 sequence (P02454 152-1207 limits assumed, chain 1 of 2): as the sequence (P02454 152-1207 limits assumed) above
T1 sequence (P02466 86-1125 limits assumed, chain 2 of 2): as the sequence (P02466 86-1125 limits assumed) above

As to “GEWTWDDA (MH2-wZIP4-F2 - does not bind collagen)”, in experiment [1], the “response to / binding of collagen (NMR spectral perturbations)” value (“response to / binding of collagen” for short) is “lack of binding with collagen”.

Turning to “GEWTWDDATKTWTWTEGDFEEIPEEYL (MH2-wZIP4-F3 - molecule of Formula (I))”, the “response to / binding of collagen” value in experiment [1] is listed as “responds fully to collagen”.

For the molecule “GEWTWNPATGKWTRTE (GEWTWNPATGKWTRTE-NH2) [CBLH2]”, in experiment [1], the “NMR perturbations after collagen gelation (polymerization); reversibility of collagen binding” value (from here on “NMR perturbations … of collagen binding”) was “certain degree of reversibility” and the “response to / binding of collagen” value was “almost identical collagen-binding characteristics”.

For the molecule “GEWTYNPATGKWTWTE (GEWTYNPATGKWTWTE-NH2) [CBLH1]”, in experiment [1], the “NMR perturbations … of collagen binding” value is “certain degree of reversibility” and the “response to / binding of collagen” value is on record as “almost identical collagen-binding characteristics”.

“GEWVWDDATKTWHWTE (GEWVWDDATKTWHWTE-NH2) [trpzip8, reference compound]”: the “response to / binding of collagen” value in experiment [1] is “CBLH peptides”.

In the case of “IRFTDGEWTWDDA (MH2-wZIP4-F1 - does not bind collagen)”, in experiment [1], the “response to / binding of collagen” value was “does not respond to collagen binding”.

For “IRFTDGGSWTWEGNKWTWKGGDFEEIPEEYLQ (MH2-wZIP1GG - molecule of Formula (I))”, in experiment [1], the “response to / binding of collagen” value is “responds similarly to collagen binding”.

For the molecule “KEWTWNPATGKWTRTE (KEWTWNPATGKWTRTE-NH2) [CBLH4]”, in experiment [1], the “NMR perturbations … of collagen binding” value was “certain degree of reversibility” and the “response to / binding of collagen” value was “almost identical collagen-binding characteristics”.

With KEWTYNPATGKWTWTE [CBLH3], in experiment [1], the “NMR perturbations … of collagen binding” value is listed as “certain degree of reversibility” and the “response to / binding of collagen” value was “almost identical collagen-binding characteristics”.

“KKWTWNPATGKWTWQE (KKWTWNPATGKWTWQE-NH2) [HP5W4, reference compound]”: the “response to / binding of collagen” value in experiment [1] was “CBLH peptides”.

Regarding “KTWNPATGKWTE (HP7 - does not bind collagen) [reference compound]”, in experiment [1], the “response to / binding of collagen” value is reported as “does not respond to the addition of collagen”.

Turning to “MH2-wZIP5: bivalent thrombin inhibitor containing the trpzip5 sequence (WO/2012/142696) (GEWTYDDATKTFTWTE; also: bivalent thrombin inhibitor, other parts, small tags and cut ends not in chain)”, in experiment [1], the “NMR perturbations … of collagen binding” value is given as “reduced degree of proton NMR signal perturbations; also recorded: more pronounced loss of resonance perturbations as compared to MH2-wZIP6” and the “response to / binding of collagen” value is reported as “varying degrees of entrapment”.

As for “MH2-wZIP6: bivalent thrombin inhibitor containing the trpzip6 sequence (WO/2012/142696) (GEWTWDDATKTWTVTE; also: bivalent thrombin inhibitor, other parts, small tags and cut ends not in chain)”, in experiment [1], the “NMR perturbations … of collagen binding” value was “reduced degree of proton NMR signal perturbations” and the “response to / binding of collagen” value is “varying degrees of entrapment”.

For “SWTVENGKVTWK (W2W11-trpzip2 - does not bind collagen) [reference compound]”, the “response to / binding of collagen” value in experiment [1] was “loses the collagen-binding capacity”.

As for “SWTWEGNKWTWK (SWTWEGNKWTWK-NH2) [trpzip1, reference compound]”, the “response to / binding of collagen” value in experiment [1] was “respond to collagen”.

As for “SWTWENGKWTWK (SWTWENGKWTWK-NH2) [trpzip2, reference compound]”, the “response to / binding of collagen” value in experiment [1] is listed as “collagen-binding linear hairpin (CBLH) peptide”.

Consider “SWTYEGNKWTWK (SWTYEGNKWTWK-NH2) [Y4-trpzip1, reference compound]”, for which the “response to / binding of collagen” value in experiment [1] is given as “retain the collagne-binding capacity”.

As to “SWTYEGNKYTWK (SWTYEGNKYTWK-NH2) [Y4Y9-trpzip1, reference compound]”, in experiment [1], the “response to / binding of collagen” value is listed as “retain the collagne-binding capacity”.

“SWTYENGKYTWK (SWTYENGKYTWK-NH2) [WYYW-trpzip2, reference compound]”: in experiment [1], the “response to / binding of collagen” value was “retains a significant capacity for binding collagen”.

Take “TWRWNGSTAWTWS (CBLH peptide - pp-D7EUT8)”: in experiment [1], the “response to / binding of collagen” value is listed as “some proton NMR perturbations are observed”.

For the molecule “TWTWNGSAWTWN (CBLH peptide - v4-gp120) [reference compound]”, in experiment [1], the “response to / binding of collagen” value is “respond to collagen”.

Take TWTWNGTNWTRN (CBLH peptide - v4-gp160): the “response to / binding of collagen” value in experiment [1] was “responsive to the presence of collagen”.

For the molecule “acetyl-STWTWNGSAWTWNEGGK (Ac-STWTWNGSAWTWNEGGK)”, in experiment [1], the “NMR perturbations … of collagen binding” value was “essentially irreversible” and the “response to / binding of collagen” value is “bind to type-I collagen”.

For “acetyl-STWTWNGTNWTRNDGGK (Ac-STWTWNGTNWTRNDGGK)”, in experiment [1], the “NMR perturbations … of collagen binding” value was “certain degree of reversibility” and the “response to / binding of collagen” value is on record as “bind to type-I collagen”.

For SWTVENGKVTWK [W2W11-trpzip2], the binding result in experiment [2] is recorded as “no binding”.

As to IRFTDGEWTWDDA (also called P4233) [MH2-wZIP4-F1], in experiment [2], the binding result was “no binding”.

GEWTYDDATKTFTVTE-NH2 (also called gb1 peptide; gb1-NH2) [gb1]: in experiment [2], the binding result is recorded as “no binding”.

As for GEWTWDDA (also called P4236) [MH2-wZIP4-F2], the binding result in experiment [2] was “no binding”.

B1: IRFTDGEWTWDDATKTWTWTE-GGS-VHpro10 (protein)
chain: IRFTDGEWTWDDATKTWTWTEGGSDVQLQASGGGLVQAGGSLRLTCAASGRTFDRYGWFRQAPGKEREFVASIGTRLHYADSVKGRFTISRDNAKSTAFLEMNSLKPEDTAVYYCAAAESTRNWYYKMSNDYDYWGQGTQVTVSSLEHHHHHH
modifications: WZ4-GGS-VHpro10 - molecule of Formula (I)
notes: trpzip4-VH conjugate, VHpro10 is a prothrombin-specific antibody VHH fragment
With B1, the “NMR perturbations / release after collagen degradation by a collagenase” value in experiment [1] (collagenase treatment) is “gradually came into view while the collagen gel dissembles in the presence of a collagenase”.

As for KTWNPATGKWTE [HP7], the binding result in experiment [2] is “no binding”.
